This note sets out measurements from paper PMC5037822, “Molecular and Biochemical Analysis of Two Rice Flavonoid 3’-Hydroxylase to Evaluate Their Roles in Flavonoid Biosynthesis in Rice Grain” (International Journal of Molecular Sciences, 2016).

Data set [1] has as its target T1, CYP75B4-JJJ (Oryza sativa, UniProt Q8LM92, E7V).
T1 construct: full length, 535 residues, natural allele with Val7, C-terminal V5 and 6xHis tags, yeast WAT11 cells with Arabidopsis reductase ATR1
T1 sequence (Q8LM92 1-535 E7V): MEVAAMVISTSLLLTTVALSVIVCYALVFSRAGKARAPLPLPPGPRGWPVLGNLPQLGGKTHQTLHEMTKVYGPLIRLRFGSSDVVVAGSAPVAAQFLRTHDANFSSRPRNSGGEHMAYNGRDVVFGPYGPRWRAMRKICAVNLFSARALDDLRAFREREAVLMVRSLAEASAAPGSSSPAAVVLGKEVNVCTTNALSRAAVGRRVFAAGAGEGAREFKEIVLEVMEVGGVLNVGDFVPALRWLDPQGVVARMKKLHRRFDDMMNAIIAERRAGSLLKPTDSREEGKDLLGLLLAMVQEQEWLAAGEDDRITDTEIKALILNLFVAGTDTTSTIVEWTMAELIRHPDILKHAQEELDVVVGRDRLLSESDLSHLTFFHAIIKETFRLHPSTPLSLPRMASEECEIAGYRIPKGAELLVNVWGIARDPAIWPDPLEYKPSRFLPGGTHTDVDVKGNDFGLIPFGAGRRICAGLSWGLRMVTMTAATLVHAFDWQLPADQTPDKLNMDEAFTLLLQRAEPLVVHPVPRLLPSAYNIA
The data set can be described thus: substrate feeding of induced yeast, HPLC of […]'-hydroxylated product. The format is cell-based. To be noted: 50 μM substrate, whole yeast WAT11 culture, 28 °C, 7.5 h.

For data set [2], the target named is T2, CYP75B4-HN (Oryza sativa, UniProt Q8LM92, H351Q).
T2 construct: full length, 535 residues, natural allele with Gln351, C-terminal V5 and 6xHis tags, yeast WAT11 cells with Arabidopsis reductase ATR1
T2 sequence (Q8LM92 1-535 H351Q): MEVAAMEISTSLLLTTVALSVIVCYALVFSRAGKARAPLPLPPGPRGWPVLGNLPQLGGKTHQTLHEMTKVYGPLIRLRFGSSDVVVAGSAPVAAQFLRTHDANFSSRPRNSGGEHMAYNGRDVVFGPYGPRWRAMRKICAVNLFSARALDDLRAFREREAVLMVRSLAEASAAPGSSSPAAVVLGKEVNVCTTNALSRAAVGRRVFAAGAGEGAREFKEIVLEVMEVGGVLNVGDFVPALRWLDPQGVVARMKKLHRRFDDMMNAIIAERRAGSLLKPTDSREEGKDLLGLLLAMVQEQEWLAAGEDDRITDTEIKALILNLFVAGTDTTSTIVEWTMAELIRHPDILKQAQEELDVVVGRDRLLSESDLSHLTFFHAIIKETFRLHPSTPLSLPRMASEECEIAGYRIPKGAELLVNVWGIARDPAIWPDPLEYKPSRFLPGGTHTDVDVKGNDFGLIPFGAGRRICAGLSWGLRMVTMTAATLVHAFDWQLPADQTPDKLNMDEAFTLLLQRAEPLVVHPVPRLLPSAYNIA
The data set is described as above. The format is cell-based. Particulars: 50 μM substrate, whole yeast WAT11 culture, 28 °C, 7.5 h.

Substrate in data set [3]: O=c1cc(-c2ccc(O)cc2)oc2cc(O)cc(O)c12
The data set can be described thus: cells, lysate or membranes. Particulars: 1 mM NADPH, 100 mM Tris pH 7.5, 30 °C.

Substrate in data set [4]: O=c1c(O)c(-c2ccc(O)cc2)oc2cc(O)cc(O)c12
The data set can be described thus: cells, lysate or membranes. Particulars: 1 mM NADPH, 100 mM Tris pH 7.5, 30 °C. It counts as biochemical, Oryza sativa.

Substrate in data set [5]: O=C1CC(c2ccc(O)cc2)Oc2cc(O)cc(O)c21
As to the kind of experiment: cells, lysate or membranes. Particulars: 1 mM NADPH, 100 mM Tris pH 7.5, 30 °C, racemic substrate.

Substrate in data set [6]: O=C1c2c(O)cc(O)cc2OC(c2ccc(O)cc2)C1O
The data set can be described thus: cells, lysate or membranes. It counts as biochemical, Oryza sativa. Particulars: 1 mM NADPH, 100 mM Tris pH 7.5, 30 °C, racemic substrate.

For `O=c1cc(-c2ccc(O)cc2)oc2cc(O)cc(O)c12` [API, apigenin], the “substrate feeding of induced yeast, HPLC of 3'-hydroxylated product” value was “CYP75B4-IM, CYP75B4-HN, and CYP75B4-JJJ metabolized naringenin, apigenin, and kaempferol” in data set [1]; “CYP75B4-IM, CYP75B4-HN, and CYP75B4-JJJ metabolized naringenin, apigenin, and kaempferol” in data set [2].
In the case of `O=c1c(O)c(-c2ccc(O)cc2)oc2cc(O)cc(O)c12` [KAM, kaempferol], the “substrate feeding of induced yeast, HPLC of 3'-hydroxylated product” value was “CYP75B4-IM, CYP75B4-HN, and CYP75B4-JJJ metabolized naringenin, apigenin, and kaempferol” in data set [1]; “CYP75B4-IM, CYP75B4-HN, and CYP75B4-JJJ metabolized naringenin, apigenin, and kaempferol” in data set [2].

B1: CYP75B4-IM (Oryza sativa Japonica Group) (protein)
chain: MEVAAMEISTSLLLTTVALSVIVCYALVFSRAGKARAPLPLPPGPRGWPVLGNLPQLGGKTHQTLHEMTKVYGPLIRLRFGSSDVVVAGSAPVAAQFLRTHDANFSSRPRNSGGEHMAYNGRDVVFGPYGPRWRAMRKICAVNLFSARALDDLRAFREREAVLMVRSLAEASAAPGSSSPAAVVLGKEVNVCTTNALSRAAVGRRVFAAGAGEGAREFKEIVLEVMEVGGVLNVGDFVPALRWLDPQGVVARMKKLHRRFDDMMNAIIAERRAGSLLKPTDSREEGKDLLGLLLAMVQEQEWLAAGEDDRITDTEIKALILNLFVAGTDTTSTIVEWTMAELIRHPDILKHAQEELDVVVGRDRLLSESDLSHLTFFHAIIKETFRLHPSTPLSLPRMASEECEIAGYRIPKGAELLVNVWGIARDPAIWPDPLEYKPSRFLPGGTHTDVDVKGNDFGLIPFGAGRRICAGLSWGLRMVTMTAATLVHAFDWQLPADQTPDKLNMDEAFTLLLQRAEPLVVHPVPRLLPSAYNIA
notes: full length, 535 residues, C-terminal V5 and 6xHis tags (pYES-DEST52), yeast WAT11 microsomes with Arabidopsis reductase ATR1
As usually defined, the Km is the substrate concentration at which the rate is half of its maximum. Broadly, the Vmax is the rate approached at saturating substrate. Consider B1, for which, in data set [3], the Km worked out at 0.240 ± 0.042 µM and the Vmax turned out to be 0.008 µM/min/mg. Besides, in data set [4], the Km was determined as 2.948 ± 0.330 µM and the Vmax was 0.007 µM/min/mg.

B2: CYP75B3-IM (CYP75B3-JJJ) (Oryza sativa Japonica Group) (protein)
chain: MDVVPLPLLLGSLAVSAAVWYLVYFLRGGSGGDAARKRRPLPPGPRGWPVLGNLPQLGDKPHHTMCALARQYGPLFRLRFGCAEVVVAASAPVAAQFLRGHDANFSNRPPNSGAEHVAYNYQDLVFAPYGARWRALRKLCALHLFSAKALDDLRAVREGEVALMVRNLARQQAASVALGQEANVCATNTLARATIGHRVFAVDGGEGAREFKEMVVELMQLAGVFNVGDFVPALRWLDPQGVVAKMKRLHRRYDNMMNGFINERKAGAQPDGVAAGEHGNDLLSVLLARMQEEQKLDGDGEKITETDIKALLLNLFTAGTDTTSSTVEWALAELIRHPDVLKEAQHELDTVVGRGRLVSESDLPRLPYLTAVIKETFRLHPSTPLSLPREAAEECEVDGYRIPKGATLLVNVWAIARDPTQWPDPLQYQPSRFLPGRMHADVDVKGADFGLIPFGAGRRICAGLSWGLRMVTLMTATLVHGFDWTLANGATPDKLNMEEAYGLTLQRAVPLMVQPVPRLLPSAYGV
notes: full length, 526 residues, C-terminal V5 and 6xHis tags (pYES-DEST52), yeast WAT11 microsomes with Arabidopsis reductase ATR1
In the case of B2, the Km in data set [5] is listed as 0.286 ± 0.015 µM; in data set [6], 2.494 ± 0.350 µM; in data set [4], 0.110 ± 0.008 µM. Also, the Vmax in data set [5] is 0.214 µM/min/mg; in data set [6] it was 0.43 µM/min/mg; in data set [4], 0.24 µM/min/mg.

B3: CYP75B3-HN (Oryza sativa Japonica Group; R27H) (protein)
chain: MDVVPLPLLLGSLAVSAAVWYLVYFLHGGSGGDAARKRRPLPPGPRGWPVLGNLPQLGDKPHHTMCALARQYGPLFRLRFGCAEVVVAASAPVAAQFLRGHDANFSNRPPNSGAEHVAYNYQDLVFAPYGARWRALRKLCALHLFSAKALDDLRAVREGEVALMVRNLARQQAASVALGQEANVCATNTLARATIGHRVFAVDGGEGAREFKEMVVELMQLAGVFNVGDFVPALRWLDPQGVVAKMKRLHRRYDNMMNGFINERKAGAQPDGVAAGEHGNDLLSVLLARMQEEQKLDGDGEKITETDIKALLLNLFTAGTDTTSSTVEWALAELIRHPDVLKEAQHELDTVVGRGRLVSESDLPRLPYLTAVIKETFRLHPSTPLSLPREAAEECEVDGYRIPKGATLLVNVWAIARDPTQWPDPLQYQPSRFLPGRMHADVDVKGADFGLIPFGAGRRICAGLSWGLRMVTLMTATLVHGFDWTLANGATPDKLNMEEAYGLTLQRAVPLMVQPVPRLLPSAYGV
notes: full length, 526 residues, natural allele with His27, C-terminal V5 and 6xHis tags, yeast WAT11 microsomes with Arabidopsis reductase ATR1
As to B3, in data set [5], the Km stood at 0.108 ± 0.009 µM and the Vmax was found to be 0.193 µM/min/mg. In data set [6], the Km worked out at 1.034 ± 0.107 µM and the Vmax was found to be 0.281 µM/min/mg.
